For assay [1], the target named is T1, B7.1/Ig fusion protein (human, UniProt P33681 35-242, limits assumed).
T1 construct: Secreted by CHO cells; also called B7-Ig; 125I-B7.1Ig; not shown: human immunoglobulin CH2 and CH3
T1 sequence (looked up): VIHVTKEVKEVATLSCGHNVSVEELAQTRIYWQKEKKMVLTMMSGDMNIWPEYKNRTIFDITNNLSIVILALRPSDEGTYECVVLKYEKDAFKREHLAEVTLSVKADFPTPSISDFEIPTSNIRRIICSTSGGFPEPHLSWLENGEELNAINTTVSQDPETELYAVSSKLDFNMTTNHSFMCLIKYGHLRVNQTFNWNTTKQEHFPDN
Kind of assay: Scatchard analysis, binding to B7-Ig coated plates.

The target in assay [2] is T1, B7.1/Ig fusion protein. Kind of assay: Scatchard analysis, binding to B7-Ig coated plates. The source holds these as a separate data set.

For orientation: Kd means the free concentration of one partner at which half of the binding sites on the other are occupied at equilibrium, for simple one-to-one binding.

Like-named read-outs stand apart in the source and are kept apart here.

B1: monkey monoclonal antibody 7B6 (antibody, V domains shown)
VH: EVQLVESGGGLVQPGGSLRVSCAVSGFTFSDHYMYWFRQAPGKGPEWVGFIRNKPNGGTTEYAASVKDRFTISRDDSKSIAYLQMSSLKIEDTAVYYCTTSYISHCRGGVCYGGYFEFWGQGALVTVSS
VL: EVVMTQSPLSLPITPGEPASISCRSSQSLKHSNGDTFLSWYQQKPGQPPRLLIYKVSNRDSGVPDRFSGSGAGTDFTLKISAVEAEDVGVYFCGQGTRTPPTFGGGTKVEIK
B1: the equilibrium dissociation constant (Kd) with B7.1/Ig fusion protein [1] and in the assay with B7.1/Ig fusion protein [2] was approximately 10.7 nM each time.

The values above are taken from patent EP1007090B1 (Biogen Idec Inc., dated 2009).
